Laboratory results reported in paper PMC13188885, “Zero-valent sulfur is the product of assimilatory sulfite reductase and a substrate of cysteine synthase” (Applied and Environmental Microbiology, 2026).

Experiments:
Experiment in all cases: mBBr-HPLC of cysteine released by TCEP; Michaelis-Menten fit
Conditions in all cases: O-acetyl-L-serine co-substrate 1.0-2.0 mM, 100 µM PLP, pH 7.4, 30 °C
[1] = substrate: N[C@@H](CCC(=O)N[C@@H](CSS)C(=O)NCC(=O)O)C(=O)O; format: biochemical, Escherichia coli
From the text: (§1) mBBr-HPLC of cysteine released by TCEP; Michaelis-Menten fit on EcCysK | We then assayed the kinetics of all five cysteine synthases

[2] = substrate: O=S(O)(O)=S; format: biochemical, Escherichia coli
From the text: as §1

[3] = substrate: N[C@@H](CCC(=O)N[C@@H](CSS)C(=O)NCC(=O)O)C(=O)O; format: biochemical, Escherichia coli; remark: listed apart in the source
From the text: (§2) mBBr-HPLC of cysteine released by TCEP; Michaelis-Menten fit on EcCysM | We then assayed the kinetics of all five cysteine synthases

[4] = substrate: O=S(O)(O)=S; format: biochemical, Escherichia coli; remark: listed apart in the source
From the text: as §2

[5] = substrate: N[C@@H](CCC(=O)N[C@@H](CSS)C(=O)NCC(=O)O)C(=O)O; format: biochemical, Saccharolobus islandicus
From the text: (§3) mBBr-HPLC of cysteine released by TCEP; Michaelis-Menten fit on SiRe_1641 | We then assayed the kinetics of all five cysteine synthases

[6] = substrate: O=S(O)(O)=S; format: biochemical, Saccharolobus islandicus
From the text: as §3

B1: EcCysK (Escherichia coli K-12) (protein)
chain: MSKIFEDNSLTIGHTPLVRLNRIGNGRILAKVESRNPSFSVKCRIGANMIWDAEKRGVLKPGVELVEPTSGNTGIALAYVAAARGYKLTLTMPETMSIERRKLLKALGANLVLTEGAKGMKGAIQKAEEIVASNPEKYLLLQQFSNPANPEIHEKTTGPEIWEDTDGQVDVFIAGVGTGGTLTGVSRYIKGTKGKTDLISVAVEPTDSPVIAQALAGEEIKPGPHKIQGIGAGFIPANLDLKLVDKVIGITNEEAISTARRLMEEEGILAGISSGAAVAAALKLQEDESFTNKNIVVILPSSGERYLSTALFADLFTEKELQQ
notes: N-terminal His-tag, expressed in E. coli BL21(DE3), Ni-NTA
B1 gave a Km [1] of 265 ± 37 µM, a Vmax [1] of 0.163 µM/min/mg and a kcat [1] of 9.78 ± 0.665 s⁻¹. The Km [2] was 1036 ± 82 µM, the Vmax [2] was 0.074 µM/min/mg and the kcat [2] was 2.45 ± 0.935 s⁻¹.

B2: EcCysM (Escherichia coli K-12) (protein)
chain: MSTLEQTIGNTPLVKLQRMGPDNGSEVWLKLEGNNPAGSVKDRAALSMIVEAEKRGEIKPGDVLIEATSGNTGIALAMIAALKGYRMKLLMPDNMSQERRAAMRAYGAELILVTKEQGMEGARDLALEMANRGEGKLLDQFNNPDNPYAHYTTTGPEIWQQTGGRITHFVSSMGTTGTITGVSRFMREQSKPVTIVGLQPEEGSSIPGIRRWPTEYLPGIFNASLVDEVLDIHQRDAENTMRELAVREGIFCGVSSGGAVAGALRVAKANPDAVVVAIICDRGDRYLSTGVFGEEHFSQGAGI
notes: as for B1
Protein B2 has a Km [3] of 325 ± 33 µM, a Vmax [3] of 0.155 µM/min/mg and a kcat [3] of 5.16 ± 1.55 s⁻¹. The kcat/Km [3] was 14700 M⁻¹ s⁻¹, the Km [4] was 408 ± 28 µM and the Vmax [4] was 0.173 µM/min/mg. For the same protein, the kcat [4] was 5.81 ± 0.92 s⁻¹ and the kcat/Km [4] was 12600 M⁻¹ s⁻¹.

B3: SiRe_1641 (Saccharolobus islandicus REY15A) (protein)
chain: MSNPLHVFSNEQELLEGMWPTPLLKLRIGNDTWAKLEFYNPFSRSVKDRTAWFLFRQALIKNVNHIVEATSGNTGIALASLSSIYGMQFTMFLPVVAPKVYKVLVKLLGGNVIEAGNSTNDVIPLVKRFAEMSNAVNLDQFNNPINVIAHYETTAREIDEQLTSIGKRPSRIIATMGTGGHIAGVAKYFKEKYGNDVEIVGVQPSENSRIPGIKRQNGSNSLLRDIKIDRVVDVSLEEAIDGTISVARTSGILIGISAGATVAAYKRINDVSSTTVLIFPDDAFKYVDILEQTLKEI
notes: as for B1
Work on B3 yielded a Km [5] of 279 ± 32 µM, a Vmax [5] of 0.174 µM/min/mg and a kcat [5] of 4.92 ± 1.27 s⁻¹. It also gave a Km [6] of 1126 ± 162 µM, a Vmax [6] of 0.065 µM/min/mg and a kcat [6] of 1.52 ± 0.511 s⁻¹.
